B1: G-CSF: recombinant human granulocyte colony stimulating factor (Amgen), cytokine (protein, UniProt P09919 31-207, looked up)
Granulocyte …: TPLGPASSLPQSFLLKCLEQVRKIQGDGAALQEKLVSECATYKLCHPEELVLLGHSLGIPWAPLSSCPSQALQLAGCLSQLHSGLFLYQGLLQALEGISPELGPTLDTLQLDVADFATTIWQQMEELGMAPALQPTQGAMPAFASAFQRRAGGVLVASHLQSFLEVSYRVLRHLAQP

Assays:
[1] = tested on: CD15; assay: CD15 expression by flow cytometry after G-CSF treatment with or without DANA; type: cell-based, human; conditions: for expression of CD15: 10 ng/ml G-CSF, 72 hr
Description: Bone marrow cells were treated with 10 ng/mL of G-CSF for 5 days in the presence or absence of 100 mM DANA and expression of CD15 was analyzed by flow cytometry.
(§1) Aliquots of ˜2-5×10^5 cells were washed with PBS, 2% FBS and incubated with primary mAbs. Subsequently, the cells were washed and incubated with species and isotype matched FITC- or PE-labeled polyclonal antibodies. Following this incubation, the cells were washed and FITC or PE fluorescence of cells was determined using a Cytomics FC 500 MPL flow cytometer (Beckman Coulter Inc., Fullerton, Calif.).
(§2) Freshly isolated BM cells were separated into early immature (Band 1), late immature (Band 2) and mature (Band 3) myeloid fractions.

[2] = tested on: endothelial E-selectin; assay: Parallel plate flow chamber adhesion of G-CSF-treated Band 2 cells on stimulated HUVEC; type: cell-based, human; conditions: 72 hr G-CSF, 1.5 dyne/cm^2, IL-1β-stimulated HUVEC
Text: FIGS. 12A-B illustrates G-CSF treatment enhances the capability of human BM cells to adhere to endothelial E-selectin under physiologic flow conditions. HUVEC were stimulated with IL-1β for 4-6 hrs. Subsequently, untreated or 72 hr. G-CSF-treated Band 2 cells were perfused over HUVEC at 1.5 dyne/cm^2. In certain instances, stimulated HUVEC were pretreated with a mAb to E-selectin prior to use in adhesion assays. […]
(§3) A tissue culture dish containing confluent HUVEC monolayer or CHO cells was loaded into a parallel plate flow chamber (Glycotech; Gaithersburg, Md.). […] Primary tethering^49 was determined by quantifying the number of ML or NL that attached (i.e., interacted) from the free stream directly onto HUVEC monolayer or CHO cells during the first 2 minutes of flow. Secondary attachments (i.e., flowing leukocytes interacting with an already adherent leukocyte on HUVEC monolayer or CHO cells) or leukocytes that rolled into the field of observation from the upstream region were not counted. Average rolling velocity, a quantitative measure of selectin binding strength, was computed (using Scion Image) as the displacement by the centroid of the cell divided by the time interval of observation, 5 sec.

[3] = tested on: sialidase; assay: Sialidase expression/activity after G-CSF treatment of human myeloid cells; type: cell-based
Text: as §2

[4] = tested on: Fuct-IX; assay: FucT-IX expression after in vitro G-CSF treatment; type: cell-based, human; conditions: normal progenitors and mobilized peripheral blood, 10 ng/ml G-CSF, 72 hr
Text: Lane 1 are normal cells isolated from bone marrow from healthy donor. Lane 2 are G-CSF treated normal progenitors isolated from bone marrow from healthy donor. Lane 3 are untreated cells isolated from G-CSF mobilized blood. Lane 4 are G-CSF treated cells isolated from G-CSF mobilized blood.
CD15 plays a role in innate immunity in priming dendritic cells. Moreover, FTIX fucosylates internal lactosamine units yielding the VIM-2 epitope. While, the VIM-2 is not sLex, but it consists of a terminal sialic acid with an “internal fucosylation” that can function as an E-selectin ligand

[5] = tested on: Hcell and HECA-452-reactive ˜65 kDa glycoprotein on human BM cells; assay: In vitro G-CSF treatment of human BM cells, HECA-452 and E-Ig Western blots; type: cell-based
Description: Normal human bone marrow (BM) cells were isolated from human BM harvest material (Massachusetts General Hospital, Boston, Mass.). Red cells were separated using dextran sedimentation method. The leukocyte-rich supernatant was subjected to a two-step discontinuous Percoll (Amersham Pharmacia Biotech; Piscataway, N.J.) density gradient centrifugation (1.065 g/ml and 1.080 g/ml; 1000 g for 20 min at 4° C.). […] The cells with least density found at the upper band (“Band 1”) contained early immature cells (myeloblasts and promyelocytes), “Band 2” contained late immature cells (primarily myelocytes and metamyelocytes), and “Band 3” contained the most mature leukocytes (predominantly band and segmented neutrophils) as well as some contaminating red cells, which were subsequently removed by hypotonic lysis. The cells in different bands were collected, washed and used for further studies. In some instances, BM mononuclear cells (BM-MNC) were isolated by Ficoll-Hypaque density gradient centrifugation. CD34+/lineage—subpopulation was isolated from BM-MNC using a negative cell selection StemSep™ human progenitor enrichment cocktail (Stem Cell Technologies Inc.); CD34+ cells were then further isolated by positive selection using anti-CD34 immunomagnetic beads (Miltenyi Biotech.), routinely resulting in populations of >98% CD34+ cells.
Membrane proteins of purified ML-M, ML-G, PMN, or PBMC were isolated as described previously^28,39. Membrane protein suspensions were aliquoted and stored at −20° C. For SDS-PAGE and Western blotting, membrane preparations were diluted in reducing sample buffer, boiled and then separated on 4-20% or 7.5% Criterion Tris-HCl SDS-PAGE gels (Bio-Rad Laboratories). Resolved membrane proteins were transferred to Sequi-blot polyvinylidene diflouride (PVDF) membrane (Bio-Rad Laboratories) and blocked with heat inactivated FBS. Blots were incubated with primary antibodies or E-Ig (each at 1 μg/ml). Appropriate isotype control immunoblots (each at 1 μg/ml) were performed in parallel to evaluate nonspecific binding to protein bands. […]

[6] = tested on: L-selectin; assay: Flow cytometry of L-selectin on G-CSF-treated BM cells; type: cell-based, human; conditions: in vitro, 10 ng/ml G-CSF, 72 hr
Description: as §1

[7] = tested on: E-selectin ligands on circulating leukocytes; assay: Clinical collections of leukocytes mobilized by G-CSF administration (ML); type: in vivo, human
Text: Materials: G-CSF mobilized peripheral blood (MPB) was obtained from pheresis products of donors for clinical HSCT at Brigham and Women's Hospital/Dana Farber Cancer Institute (Boston, Mass.). G-CSF MPB leukocytes (ML) were isolated from buffy coat of dextran sedimentated whole blood, followed by hypotonic lysis to remove contaminating red cells. Mononuclear fraction of these cells (ML-M) was isolated by Ficoll-Hypaque (1.077 g/ml; Sigma Aldrich) density gradient centrifugation. Native (unmobilized) peripheral blood was obtained from consenting healthy volunteers, and NL (buffy coat) were isolated using dextran sedimentation as for ML. Peripheral blood mononuclear cells (PBMC) were isolated by Ficoll-Hypaque density gradient centrifugation. Polymorphonuclear leukocytes (PMN) were isolated by dextran sedimentation followed by collecting the cell pellet after Ficoll-Hypaque density gradient centrifugation. Contaminated red cells were removed by hypotonic lysis.
as §3, with “sec. […]” for “sec.”
Aliquots of ˜2-5×10^5 cells were washed with PBS, 2% FBS and incubated with primary mAbs. […] Following this incubation, the cells were washed and FITC or PE fluorescence of cells was determined using a Cytomics FC 500 MPL flow cytometer (Beckman Coulter Inc., Fullerton, Calif.).

[8] = tested on: ST3GalIV, FucT-IV and FucT-VII; assay: RT-PCR of glycosyltransferases in G-CSF-treated Band 2 BM cells; type: cell-based; conditions: immature human BM cells (Band 2), 10 ng/ml G-CSF, 72 hr
Text: ID NO:1) and antisense [NT] NO:2); FucT-VII, sense [NT] ID NO:3) and antisense [NT] ID NO:4); FucT-IV, sense […] NO:5) and antisense […] NO:6); GAPDH sense [NT] ID NO:8) and antisense [NT] ID NO:9).

[9] = multiple clinical ML collections, G-CSF administration

G-CSF-induced increase in CD15 under sialidase inhibition ([1]; bone marrow cells, 10 ng/mL G-CSF for 5 days, 100 mM DANA, flow cytometry)	G-CSF-induced increase of CD15 under sialidase inhibition ([1]; late mature bone marrow and leukocytes, G-CSF-treated)	Molecule	expression of CD15 ([1]; early immature bone marrow)	expression of CD15 ([1]; late mature bone marrow and leukocytes)	E-selectin binding (primary tethering, rolling velocity on stimulated HUVEC) [2]	expression of sialidase ([3]; bone marrow and leukocytes, 10 ng/ml G-CSF, 72 hr)	sialidase activity ([3]; human myeloid bone marrow cells, 10 ng/mL G-CSF, 24 hours, 4-MU-NANA substrate)	Fuct-IX expression [4]	expression of Hcell and the HECA-452-reactive ˜65 kDa glycoprotein ([5]; 10 ng/ml G-CSF, 72 hr, 37° C., predominantly immature Band 1 and Band 2 human BM cells)	HCELL induction on lymphocytes ([5]; lymphocytes in BM or in blood)	inducing HCELL expression among mature myeloid BM cells ([5]; mature myeloid BM cells)	L-selectin expression on G-CSF treated cells relative to untreated cells [6]	surface L-selectin expression on circulating leukocytes ([7]; following G-CSF administration, flow cytometry)	E-selectin ligand activity of circulating leukocytes [7, 9]	expression of the E-selectin ligands HCELL and the HECA-452-reactive ˜65 kDa glycoprotein [7, 9]	expression levels of ST3GalIV, FucT-IV and FucT-VII [8]
blunts G-CSF-induced increase in CD15	could be prevented	CC(=O)N[C@H]1[C@H]([C@H](O)[C@H](O)CO)OC(C(=O)O)=C[C@@H]1O [DANA, 2-deoxy-2,3-dehydro-N-acetyl-neuraminic acid, reference compound]	–	–	–	–	–	–	–	–	–	–	–	–	–	–
–	–	B1	did not has an effect	increased expression of CD15	enhanced E-selectin binding	increase expression of sialidase	increases sialidase activity	increases Fuct-IX expression	up-regulation in expression	not induced	only a variable effect	down-regulation of L-selectin expression	marked decrease in surface L-selectin expression	uniformly increased E-selectin ligand activity	upregulated the expression	increases in expression levels

Reference: patent US8633026B2, “Cytokine induction of selectin ligands on cells” (priority 2006, dated 2014)
